Measured values published in PMC1097722.

Molecular target: Gal4-16.4.1 fusion protein (pBIND-16.4.1) (human)
Experiment: two-hybrid

other | Substance | fold induction of luciferase activity
– | VP16-Rev fusion protein (pACT-Rev) (from UniProt P04618 1-116) (natural protein) | 11 fold
41 fold | VP16-hCRM1 fusion protein (pACT-hCRM1) (from UniProt O14980 1-1071) (natural protein) | –
